The target of one experiment is T1, GST-PP2C30 (rice, UniProt Q84JI0 1-404).
T1 sequence: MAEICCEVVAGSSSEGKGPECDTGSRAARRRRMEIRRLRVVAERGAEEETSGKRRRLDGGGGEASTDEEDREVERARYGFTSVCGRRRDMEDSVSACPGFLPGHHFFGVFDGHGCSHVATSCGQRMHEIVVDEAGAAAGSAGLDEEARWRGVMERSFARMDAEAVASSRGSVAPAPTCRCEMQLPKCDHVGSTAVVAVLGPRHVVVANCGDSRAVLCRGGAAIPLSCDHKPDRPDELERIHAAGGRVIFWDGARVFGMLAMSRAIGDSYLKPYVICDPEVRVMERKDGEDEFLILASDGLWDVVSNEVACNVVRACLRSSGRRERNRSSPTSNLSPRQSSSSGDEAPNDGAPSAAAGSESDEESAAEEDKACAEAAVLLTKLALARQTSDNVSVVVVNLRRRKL
Put plainly: pull-down.

The target in the next experiment is T2, GST-PP2C51 (rice, UniProt Q65XK7 1-381).
T2 sequence: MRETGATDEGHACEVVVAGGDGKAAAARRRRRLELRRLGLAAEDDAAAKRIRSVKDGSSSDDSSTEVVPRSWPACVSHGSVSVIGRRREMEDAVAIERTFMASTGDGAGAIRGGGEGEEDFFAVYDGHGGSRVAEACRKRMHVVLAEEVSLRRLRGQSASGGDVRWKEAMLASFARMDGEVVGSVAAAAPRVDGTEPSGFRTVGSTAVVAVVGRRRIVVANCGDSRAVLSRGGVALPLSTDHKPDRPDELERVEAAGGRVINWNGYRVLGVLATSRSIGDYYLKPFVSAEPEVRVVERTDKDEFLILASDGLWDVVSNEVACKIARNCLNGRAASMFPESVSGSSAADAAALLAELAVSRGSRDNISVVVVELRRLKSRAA
Kind of experiment: pull-down.

B1: SAPK2-His (natural protein)
chain: MERYEVIKDIGSGNFGVAKLVRDVRTKELFAVKFIERGQKIDENVQREIMNHRSLRHPNIVRFKEVVLTPTHLAIVMEYAAGGELFERICSAGRFSEDEARFFFQQLISGVSYCHSMQICHRDLKLENTLLDGSIAPRLKICDFGYSKSSLLHSQPKSTVGTPAYIAPEVLARKEYDGKVADVWSCGVTLYVMLVGAYPFEDPDEPRNFRKTITRILSVQYMVPDYVRVSMECRHLLSRIFVANPEQRITIPEIKNHPWFLKNLPIEMTDEYQMSVQMNDINTPSQGLEEIMAIIQEARKPGDGSKFSGQIPGLGSMELDDVDTDDIDVEDSGDFVCAL
As for B1, the binding result with GST-PP2C30 and with GST-PP2C51 was “binds” each time.

The values are drawn from article PMC12627605 (Nature Communications, 2025).
